Data reported in publication PMC7431413.

Target: recombinant tyrosine phosphorylated STAT3 dimer (pY705 STAT3-CF) (human) (UniProt P40763)
Test: SEC; purified STAT3-CF co-expressed with the ABL1 kinase domain; immunoblot for pY705

## recombinant tyrosine phosphorylated STAT3 dimer (pY705 STAT3-CF) (from UniProt P40763 127-722) (domain or fragment)
  stoichiometry N: 2
